Data published in patent US20170306033A1 (Amgen, published 2017).
Changes are numbered by the printed parent chain. Read-outs that look alike come from different tables or passages of the source.

B1: iPS:386715 (bispecific antibody, human IgG1, lambda, N297G)
light: QSVLTQPPSVSAAPGQKVTISCSGSSSNIGNNYVSWYQQLPGTAPKLLIYDNNKRPSGIPDRFSGSKSGTSTTLGITGLQTGDEADYYCGTWDSRLSAVVFGGGTKLTVLGQPKANPTVTLFPPSSEELQANKATLVCLISDFYPGAVTVAWKADGSPVKAGVETTKPSKQSNNKYAASSYLSLTPEQWKSHRSYSCQVTHEGSTVEKTVAPTECS
heavy: not shown
B2: iPS:392526 (bispecific antibody, human IgG1, kappa, lambda, N297G)
light: B1 light with S179K
heavy: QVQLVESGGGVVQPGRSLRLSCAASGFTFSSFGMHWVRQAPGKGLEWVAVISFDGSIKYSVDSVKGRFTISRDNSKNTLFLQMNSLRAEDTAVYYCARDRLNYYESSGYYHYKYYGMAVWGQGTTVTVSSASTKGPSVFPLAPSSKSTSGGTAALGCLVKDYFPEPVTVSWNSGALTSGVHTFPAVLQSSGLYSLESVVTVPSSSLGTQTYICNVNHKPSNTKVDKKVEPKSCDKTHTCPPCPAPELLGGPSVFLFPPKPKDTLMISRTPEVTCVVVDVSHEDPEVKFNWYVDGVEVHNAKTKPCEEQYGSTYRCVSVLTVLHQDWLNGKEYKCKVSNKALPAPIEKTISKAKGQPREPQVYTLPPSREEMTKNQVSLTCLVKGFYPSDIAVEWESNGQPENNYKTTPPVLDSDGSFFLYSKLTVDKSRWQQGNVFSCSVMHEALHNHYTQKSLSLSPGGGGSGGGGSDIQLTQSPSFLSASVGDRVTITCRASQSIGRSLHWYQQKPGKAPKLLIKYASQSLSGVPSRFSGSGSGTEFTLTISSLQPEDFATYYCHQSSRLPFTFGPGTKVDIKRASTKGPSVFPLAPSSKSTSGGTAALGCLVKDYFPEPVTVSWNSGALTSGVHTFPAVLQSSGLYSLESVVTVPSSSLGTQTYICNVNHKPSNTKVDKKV
chain: QVQLVESGAEVVKPGASVKVSCKASGFTFSRFAMHWVRQAPGQGLEWMGVISYDGGNKYYAESVKGRVTMTRDTSTSTLYMELSSLRSEDTAVYYCARGYDVLTGYPDYWGQGTLVTVSSTVAAPSVFIFPPSDEQLKSGTASVVCLLNNFYPREAKVQWKVDNALQSGNSQESVTEQDSKDSTYSLKSTLTLSKADYEKHKVYACEVTHQGLSSPVTKSFNRGEC
B3: iPS:392528 (bispecific antibody, human IgG1, kappa, lambda, N297G)
light: B1 light with S179K
heavy: not shown
chain: QVQLVESGAEVVKPGASVKVSCKASGFTFSRFAMHWVRQAPGQGLEWMGVISYDGGNKYYAESVKGRVTMTRDTSTSTLYMELSSLRSEDTAVYYCARGYDVLTGYPDYWGQGTLVTVSSASTKGPSVFPLAPSSKSTSGGTAALGCLVKDYFPEPVTVSWNSGALTSGVHTFPAVLQSSGLYSLKSVVTVPSSSLGTQTYICNVNHKPSNTKVDKKV
B4: iPS:386721 (bispecific antibody, human IgG1, lambda, N297G)
light: B1 light with T72A, G75A
heavy: not shown
B5: iPS:386717 (bispecific antibody, human IgG1, lambda, N297G)
light: B1 light
heavy: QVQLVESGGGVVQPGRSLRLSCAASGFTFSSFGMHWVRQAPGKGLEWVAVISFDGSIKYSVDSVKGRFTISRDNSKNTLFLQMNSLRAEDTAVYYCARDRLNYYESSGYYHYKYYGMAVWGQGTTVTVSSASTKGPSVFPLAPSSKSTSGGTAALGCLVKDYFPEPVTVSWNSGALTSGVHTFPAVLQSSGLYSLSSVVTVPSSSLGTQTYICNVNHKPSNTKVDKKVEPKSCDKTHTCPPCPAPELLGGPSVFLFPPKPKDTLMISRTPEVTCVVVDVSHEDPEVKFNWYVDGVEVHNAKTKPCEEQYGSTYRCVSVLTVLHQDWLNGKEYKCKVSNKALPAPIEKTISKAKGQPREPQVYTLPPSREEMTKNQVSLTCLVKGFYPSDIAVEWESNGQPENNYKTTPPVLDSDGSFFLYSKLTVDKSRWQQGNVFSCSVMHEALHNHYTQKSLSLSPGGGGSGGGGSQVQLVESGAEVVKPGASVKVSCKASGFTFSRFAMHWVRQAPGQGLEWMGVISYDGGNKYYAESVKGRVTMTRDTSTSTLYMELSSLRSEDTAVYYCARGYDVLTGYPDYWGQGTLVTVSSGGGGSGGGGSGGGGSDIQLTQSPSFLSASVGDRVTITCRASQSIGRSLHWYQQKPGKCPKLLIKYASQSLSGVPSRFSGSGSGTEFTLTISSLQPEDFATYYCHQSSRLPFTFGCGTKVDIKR
B6: iPS:392525 (bispecific antibody, human IgG1, kappa, lambda, N297G)
light: B1 light with S179K
heavy: not shown
chain: B2 chain with Q39K
B7: iPS:392524 (bispecific antibody, human IgG1, kappa, lambda, N297G)
light: B1 light with S179K
heavy: not shown
chain: B2 chain
B8: iPS:386719 (bispecific antibody, human IgG1, lambda, N297G)
light: B1 light with T72A
heavy: not shown
B9: iPS:386723 (bispecific antibody, human IgG1, lambda, N297G)
light: B1 light with T72A
heavy: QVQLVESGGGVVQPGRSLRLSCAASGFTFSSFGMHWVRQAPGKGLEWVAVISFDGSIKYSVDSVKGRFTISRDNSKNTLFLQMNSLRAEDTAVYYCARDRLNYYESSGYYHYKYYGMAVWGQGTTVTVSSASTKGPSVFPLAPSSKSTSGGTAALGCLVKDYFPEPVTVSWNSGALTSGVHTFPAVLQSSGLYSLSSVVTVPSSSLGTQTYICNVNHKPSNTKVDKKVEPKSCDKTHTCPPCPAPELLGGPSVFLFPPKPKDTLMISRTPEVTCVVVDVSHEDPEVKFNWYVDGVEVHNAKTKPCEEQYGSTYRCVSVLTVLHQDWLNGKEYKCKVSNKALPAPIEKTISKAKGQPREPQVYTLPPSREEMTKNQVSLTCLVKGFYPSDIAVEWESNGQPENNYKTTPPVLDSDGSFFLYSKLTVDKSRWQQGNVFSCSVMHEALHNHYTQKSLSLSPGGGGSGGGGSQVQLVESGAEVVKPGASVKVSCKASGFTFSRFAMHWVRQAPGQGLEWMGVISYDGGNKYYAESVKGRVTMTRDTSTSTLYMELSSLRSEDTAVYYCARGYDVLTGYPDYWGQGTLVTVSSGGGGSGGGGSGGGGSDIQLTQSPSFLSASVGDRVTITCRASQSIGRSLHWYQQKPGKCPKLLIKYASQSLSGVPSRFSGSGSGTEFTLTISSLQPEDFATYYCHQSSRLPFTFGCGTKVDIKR
B10: iPS:392527 (bispecific antibody, human IgG1, kappa, lambda, N297G)
light: B1 light with S179K
heavy: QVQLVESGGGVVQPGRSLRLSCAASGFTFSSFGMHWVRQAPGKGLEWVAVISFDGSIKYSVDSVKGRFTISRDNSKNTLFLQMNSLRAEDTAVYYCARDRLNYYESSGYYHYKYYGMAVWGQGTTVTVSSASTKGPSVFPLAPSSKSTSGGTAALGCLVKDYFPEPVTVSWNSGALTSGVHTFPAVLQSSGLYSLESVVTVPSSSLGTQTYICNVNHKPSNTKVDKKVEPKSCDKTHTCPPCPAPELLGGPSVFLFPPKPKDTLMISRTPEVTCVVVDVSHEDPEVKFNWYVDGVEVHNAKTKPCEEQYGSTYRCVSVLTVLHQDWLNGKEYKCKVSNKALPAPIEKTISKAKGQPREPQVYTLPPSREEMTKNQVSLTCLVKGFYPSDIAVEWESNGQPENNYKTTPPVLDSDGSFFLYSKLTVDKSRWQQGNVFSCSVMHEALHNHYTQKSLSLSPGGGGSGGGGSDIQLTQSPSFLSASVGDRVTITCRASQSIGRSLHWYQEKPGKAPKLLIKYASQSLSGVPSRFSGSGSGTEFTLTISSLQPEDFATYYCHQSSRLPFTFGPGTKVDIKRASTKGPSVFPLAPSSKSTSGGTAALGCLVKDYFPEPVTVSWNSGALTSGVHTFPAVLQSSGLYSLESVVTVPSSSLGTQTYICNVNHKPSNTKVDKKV
chain: B2 chain with Q39K
B11: iPS:386764 (bispecific antibody, human IgG1, kappa, N297G)
light: DIQLTQSPSFLSASVGDRVTITCRASQSIGRSLHWYQQKPGKAPKLLIKYASQSLSGVPSRFSGSGSGTEFTLTISSLQPEDFATYYCHQSSRLPFTFGPGTKVDIKRTVAAPSVFIFPPSDEQLKSGTASVVCLLNNFYPREAKVQWKVDNALQSGNSQESVTEQDSKDSTYSLSSTLTLSKADYEKHKVYACEVTHQGLSSPVTKSFNRGEC
heavy: not shown
B12: iPS:392516 (bispecific antibody, human IgG1, kappa, lambda, N297G)
light: B11 light with S176E
heavy: not shown
chain: QVQLVESGGGVVQPGRSLRLSCAASGFTFSSFGMHWVREAPGKGLEWVAVISFDGSIKYSVDSVKGRFTISRDNSKNTLFLQMNSLRAEDTAVYYCARDRLNYYDSSGYYHYKYYGMAVWGQGTTVTVSSASTKGPSVFPLAPSSKSTSGGTAALGCLVKDYFPEPVTVSWNSGALTSGVHTFPAVLQSSGLYSLESVVTVPSSSLGTQTYICNVNHKPSNTKVDKKV
B13: iPS:392514 (bispecific antibody, human IgG1, kappa, lambda, N297G)
light: B11 light with S176E
heavy: not shown
chain: QVQLVESGGGVVQPGRSLRLSCAASGFTFSSFGMHWVREAPGKGLEWVAVISFDGSIKYSVDSVKGRFTISRDNSKNTLFLQMNSLRAEDTAVYYCARDRLNYYDSSGYYHYKYYGMAVWGQGTTVTVSSGQPKANPTVTLFPPSSEELQANKATLVCLISDFYPGAVTVAWKADGSPVKAGVETTKPSKQSNNKYAAESYLSLTPEQWKSHRSYSCQVTHEGSTVEKTVAPTECS
B14: iPS:392523 (bispecific antibody, human IgG1, kappa, lambda, N297G)
light: B11 light with Q38E, S176E
heavy: not shown
chain: B12 chain with D105E
B15: iPS:392518 (bispecific antibody, human IgG1, kappa, lambda, N297G)
light: B11 light with Q38E, S176E
heavy: not shown
chain: B12 chain
B16: iPS:392521 (bispecific antibody, human IgG1, kappa, lambda, N297G)
light: B11 light with S176E
heavy: not shown
chain: B12 chain with D105E
B17: iPS:392513 (bispecific antibody, human IgG1, kappa, lambda, N297G)
light: B11 light with S176E
heavy: not shown
chain: B13 chain with E39Q
B18: iPS:392522 (bispecific antibody, human IgG1, kappa, lambda, N297G)
light: B11 light with Q38E, S176E
heavy: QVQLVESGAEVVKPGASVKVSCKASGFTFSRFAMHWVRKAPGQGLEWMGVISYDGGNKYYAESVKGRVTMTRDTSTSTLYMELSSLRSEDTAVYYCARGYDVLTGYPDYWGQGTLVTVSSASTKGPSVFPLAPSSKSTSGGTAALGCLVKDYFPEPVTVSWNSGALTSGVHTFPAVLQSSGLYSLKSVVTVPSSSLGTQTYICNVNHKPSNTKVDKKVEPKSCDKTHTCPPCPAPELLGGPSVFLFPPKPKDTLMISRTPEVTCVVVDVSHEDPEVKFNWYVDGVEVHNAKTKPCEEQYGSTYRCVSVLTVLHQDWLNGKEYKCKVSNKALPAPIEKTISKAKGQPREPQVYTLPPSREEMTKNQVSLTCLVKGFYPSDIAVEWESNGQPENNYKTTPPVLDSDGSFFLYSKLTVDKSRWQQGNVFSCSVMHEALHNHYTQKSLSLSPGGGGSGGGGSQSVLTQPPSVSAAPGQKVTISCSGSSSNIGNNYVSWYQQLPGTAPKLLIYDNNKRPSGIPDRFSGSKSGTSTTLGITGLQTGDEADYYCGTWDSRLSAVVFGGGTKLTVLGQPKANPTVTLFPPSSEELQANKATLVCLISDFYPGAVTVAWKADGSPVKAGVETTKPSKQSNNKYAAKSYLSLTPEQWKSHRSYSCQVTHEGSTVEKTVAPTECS
chain: B12 chain with E39Q, D105E
B19: iPS:392475 (bispecific antibody, human IgG1, kappa, lambda, N297G)
light: B11 light with S176E
heavy: not shown
chain: B13 chain with E39Q, D105E
B20: iPS:392520 (bispecific antibody, human IgG1, kappa, lambda, N297G)
light: B11 light with S176E
heavy: not shown
chain: B12 chain with E39Q, D105E
B21: iPS:392519 (bispecific antibody, human IgG1, kappa, lambda, N297G)
light: B11 light with S176E
heavy: not shown
chain: B13 chain with D105E
B22: iPS:392515 (bispecific antibody, human IgG1, kappa, lambda, N297G)
light: B11 light with S176E
heavy: not shown
chain: B12 chain with E39Q
B23: iPS:392517 (bispecific antibody, human IgG1, kappa, lambda, N297G)
light: B11 light with Q38E, S176E
heavy: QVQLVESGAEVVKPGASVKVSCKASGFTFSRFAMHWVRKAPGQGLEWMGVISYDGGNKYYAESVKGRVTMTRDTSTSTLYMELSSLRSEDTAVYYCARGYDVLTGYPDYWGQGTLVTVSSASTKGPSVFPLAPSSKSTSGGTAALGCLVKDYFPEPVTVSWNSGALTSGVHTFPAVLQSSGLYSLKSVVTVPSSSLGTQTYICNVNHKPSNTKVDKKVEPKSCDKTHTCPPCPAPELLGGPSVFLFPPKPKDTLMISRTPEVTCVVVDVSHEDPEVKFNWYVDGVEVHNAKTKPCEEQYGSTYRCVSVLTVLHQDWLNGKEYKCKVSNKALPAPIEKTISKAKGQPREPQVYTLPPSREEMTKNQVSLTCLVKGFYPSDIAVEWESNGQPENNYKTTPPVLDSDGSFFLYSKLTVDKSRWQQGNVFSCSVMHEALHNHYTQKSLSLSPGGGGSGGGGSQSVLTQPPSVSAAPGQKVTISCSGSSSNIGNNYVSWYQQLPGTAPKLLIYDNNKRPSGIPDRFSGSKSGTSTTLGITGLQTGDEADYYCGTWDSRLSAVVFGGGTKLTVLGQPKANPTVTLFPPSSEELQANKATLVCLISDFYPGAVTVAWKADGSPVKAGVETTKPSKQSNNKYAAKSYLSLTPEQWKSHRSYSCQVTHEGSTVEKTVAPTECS
chain: B12 chain with E39Q

Columns and labels:
Assay in all cases: cell-based or functional assay
human CGRP receptor [1] = molecular target: T1, human CGRP receptor (human, UniProt Q16602 23-461; O60894 27-148)
human PAC1 receptor [2] = molecular target: T2, human PAC1 receptor (human, UniProt P41586 21-468)
T2 sequence: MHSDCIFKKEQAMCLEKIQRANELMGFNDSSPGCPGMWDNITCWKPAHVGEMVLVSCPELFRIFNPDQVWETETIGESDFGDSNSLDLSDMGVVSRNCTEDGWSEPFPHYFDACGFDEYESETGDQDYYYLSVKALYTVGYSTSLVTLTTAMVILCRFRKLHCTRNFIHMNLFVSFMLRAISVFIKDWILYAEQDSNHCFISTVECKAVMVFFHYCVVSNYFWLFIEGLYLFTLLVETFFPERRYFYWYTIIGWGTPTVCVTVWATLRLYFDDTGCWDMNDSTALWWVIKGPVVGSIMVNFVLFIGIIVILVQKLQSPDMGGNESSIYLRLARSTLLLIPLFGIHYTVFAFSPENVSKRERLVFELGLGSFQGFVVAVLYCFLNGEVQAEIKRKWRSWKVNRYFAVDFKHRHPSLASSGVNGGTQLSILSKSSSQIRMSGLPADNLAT

human CGRP receptor [3] = molecular target: T1, human CGRP receptor; remark: listed apart in the source
human PAC1 receptor [4] = molecular target: T2, human PAC1 receptor; remark: listed apart in the source

T1 sequence (Q16602 23-461 limits assumed, chain 1 of 2): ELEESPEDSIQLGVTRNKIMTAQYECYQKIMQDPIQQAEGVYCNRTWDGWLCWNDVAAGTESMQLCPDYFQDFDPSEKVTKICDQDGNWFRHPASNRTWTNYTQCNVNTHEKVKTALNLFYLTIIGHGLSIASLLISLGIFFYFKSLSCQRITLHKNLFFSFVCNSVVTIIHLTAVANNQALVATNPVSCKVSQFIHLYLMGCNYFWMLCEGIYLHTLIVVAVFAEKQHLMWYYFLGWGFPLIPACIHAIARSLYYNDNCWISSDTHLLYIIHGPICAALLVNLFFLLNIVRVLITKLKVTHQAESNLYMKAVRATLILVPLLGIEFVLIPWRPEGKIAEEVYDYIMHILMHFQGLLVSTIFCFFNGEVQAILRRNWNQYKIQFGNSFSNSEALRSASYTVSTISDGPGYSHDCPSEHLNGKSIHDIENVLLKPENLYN
T1 sequence (O60894 27-148 limits assumed, chain 2 of 2): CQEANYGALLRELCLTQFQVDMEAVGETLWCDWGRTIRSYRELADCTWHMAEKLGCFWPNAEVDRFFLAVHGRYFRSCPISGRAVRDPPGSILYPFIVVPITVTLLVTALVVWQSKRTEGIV

Binder	Human CGRP Receptor IC50 (human CGRP receptor [3]) [nM]	Human PAC1 Receptor IC50 (human PAC1 receptor [4]) [nM]	also measured
B1	–	–	Human CGRP Receptor IC50 (human CGRP receptor [1]): 0.43 nM; Human PAC1 Receptor IC50 (human PAC1 receptor [2]): 689 nM
B2	0.71	116	–
B3	0.55	> 1000	–
B4	–	–	Human CGRP Receptor IC50 (human CGRP receptor [1]): 0.22 nM; Human PAC1 Receptor IC50 (human PAC1 receptor [2]): 197 nM
B5	–	–	Human CGRP Receptor IC50 (human CGRP receptor [1]): 0.33 nM; Human PAC1 Receptor IC50 (human PAC1 receptor [2]): 580 nM
B6	1.22	37.1	–
B7	0.86	81.2	–
B8	–	–	Human CGRP Receptor IC50 (human CGRP receptor [1]): 0.41 nM; Human PAC1 Receptor IC50 (human PAC1 receptor [2]): 940 nM
B9	–	–	Human CGRP Receptor IC50 (human CGRP receptor [1]): 0.27 nM; Human PAC1 Receptor IC50 (human PAC1 receptor [2]): 248 nM
B10	0.42	16.4	–
B11	–	–	Human CGRP Receptor IC50 (human CGRP receptor [1]): 2.61 nM; Human PAC1 Receptor IC50 (human PAC1 receptor [2]): 11.9 nM
B12	27.9	9.3	–
B13	54	4.69	–
B14	20.4	5.03	–
B15	17.8	3.4	–
B16	18.8	6.88	–
B17	60.2	2.7	–
B18	–	–	Human CGRP Receptor IC50 (nM), lot #1 (human CGRP receptor [3]): 8.8 nM; Human CGRP Receptor IC50 (nM), lot #2 (human CGRP receptor [3]): 7.58 nM; Human PAC1 Receptor IC50 (nM), lot #1 (human PAC1 receptor [4]): 9.32 nM; Human PAC1 Receptor IC50 (nM), lot #2 (human PAC1 receptor [4]): 3.29 nM
B19	20.4	4.78	–
B20	10.5	6.28	–
B21	81.3	6.87	–
B22	12.9	2.66	–
B23	–	–	Human CGRP Receptor IC50 (nM), lot #1 (human CGRP receptor [3]): 10.9 nM; Human CGRP Receptor IC50 (nM), lot #2 (human CGRP receptor [3]): 11.5 nM; Human PAC1 Receptor IC50 (nM), lot #1 (human PAC1 receptor [4]): 2.48 nM; Human PAC1 Receptor IC50 (nM), lot #2 (human PAC1 receptor [4]): 7.75 nM
